Experimental data published in patent US20170290876A1 (Novartis, published 2017).

Experiments:
[1] = target: T1, human VEGF (human, UniProt P15692 207-395, biotinylated (site not stated)); assay: Biacore SPR, Hu VEGF-biotin, 25 C
T1 construct: Biotinylated human VEGF generated internally; also called hVEGF; hVEGF-biotin
T1 sequence: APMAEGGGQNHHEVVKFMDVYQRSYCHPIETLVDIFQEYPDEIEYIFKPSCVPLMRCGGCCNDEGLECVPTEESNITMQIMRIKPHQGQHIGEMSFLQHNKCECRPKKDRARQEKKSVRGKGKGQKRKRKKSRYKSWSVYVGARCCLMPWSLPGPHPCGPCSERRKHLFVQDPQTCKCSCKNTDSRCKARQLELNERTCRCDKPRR

[2] = target: T2, human Factor P (human, UniProt P27918 28-469, biotinylated (site not stated)); assay: Biacore SPR, Hu factor P-biotin, 37 C
T2 construct: also called Factor P-biotin; Hu factor P-biotin

[3] = target: T3, human TNFα (human, UniProt P01375 77-233, biotinylated (site not stated)); assay: Biacore SPR, Hu TNFα-biotin, 37 C
T3 construct: also called TNFα-biotin; Hu TNFα-biotin

[4] = target: T1, human VEGF; assay: Biacore SPR, human VEGF
Procedure: (§1) In order to determine target kinetics, two different formats were utilized. […] The second format is an anti-fab capture method in which the fab protein samples are captured and the target proteins flowed over at various concentrations.
(§2) The sample compartment which includes the analytes, ligands, and regeneration buffer, is kept at 15° C. All other running conditions were carried out at either 25° C. or 37° C. in 1×HBSE+P buffer. […] Data was collected at 10 Hz and analyzed using the Biacore T200 Evaluation Software (GE Healthcare®). This program uses a global fitting analysis method for the determination of rate and affinity constants for each interaction.

[5] = target: T1, human VEGF; assay: Biacore SPR, hVEGF-biotin, 25 C
[6] = target: T1, human VEGF; assay: Biacore SPR, hVEGF
[7] = target: T1, human VEGF; assay: Biacore SPR, Hu VEGF-biotin, 37 C
Procedure: as §1, §2

[8] = target: T1, human VEGF; assay: Biacore SPR, hVEGF-biotin, 37 C
[9] = target: T4, IL-1β (human, UniProt P01584 117-269, biotinylated (site not stated)); assay: Biacore SPR, IL1β-biotin, 25 C
T4 construct: also called IL1β-biotin

T2 sequence (P27918 28-469 limits assumed): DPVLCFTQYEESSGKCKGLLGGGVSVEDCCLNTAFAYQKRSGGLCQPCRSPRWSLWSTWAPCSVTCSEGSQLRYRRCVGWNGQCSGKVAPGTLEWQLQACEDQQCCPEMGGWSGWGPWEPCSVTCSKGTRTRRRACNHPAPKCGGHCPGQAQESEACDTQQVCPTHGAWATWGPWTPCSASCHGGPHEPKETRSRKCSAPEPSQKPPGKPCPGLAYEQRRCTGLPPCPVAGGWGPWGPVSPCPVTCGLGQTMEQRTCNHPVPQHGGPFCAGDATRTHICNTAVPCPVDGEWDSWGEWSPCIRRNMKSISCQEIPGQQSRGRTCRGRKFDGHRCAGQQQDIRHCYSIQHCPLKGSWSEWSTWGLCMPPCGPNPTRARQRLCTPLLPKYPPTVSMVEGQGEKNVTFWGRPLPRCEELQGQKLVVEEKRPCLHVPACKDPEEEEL
T3 sequence (P01375 77-233 limits assumed): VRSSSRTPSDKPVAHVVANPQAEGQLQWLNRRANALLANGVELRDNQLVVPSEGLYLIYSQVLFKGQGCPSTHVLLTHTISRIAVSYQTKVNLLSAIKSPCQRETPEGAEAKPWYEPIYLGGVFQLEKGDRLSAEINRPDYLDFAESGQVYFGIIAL

B1: NVS83 (scFv)
scFv: MEIVMTQSPSTLSASVGDRVIITCQASEIIHSWLAWYQQKPGKAPKLLIYLASTLASGVPSRFSGSGSGAEFTLTISSLQPDDFATYYCQNVYLASTNGANFGQGTKLTVLGGGGGGSGGGGSGGGGSSGGGSEVQLVESGGGLVQPGGSLRLSCTASGFSLTDYYYMTWVRQAPGKGLEWVGFIDPDDDPYYATWAKGRFTISRDNSKNTLYLQMNSLRAEDTAVYYCAGGDHNSGWGLDIWGQGTLVTVSSHHHHHH
notes: also called scFv of NVS4
- Kd [1]: 6.75 pM
- koff [1]: 9.18e-06 s⁻¹
- kon [1]: 1.36e+06 M⁻¹ s⁻¹

B2: NVS71 (Fab, V domains shown)
VH: EVQLVQSGAEVKKPGSSVKVSCKASGGTFSSYAISWVRQAPGQGLEWMGRIIPIFGTANYAQKFQGRVTITADESTSTAYMELSSLRSEDTAVYYCARHGGYSFDSWGQGTLVTVSS
VL: SYELTQPPSVSVAPGQTARISCSGDNLGSKYVDWYQQKPGQAPVLVIYSDNNRPSGIPERFSGSNSGNTATLTISGTQAEDEADYYCQTYTSGNNYLVFGGGTKLTVLG
notes: Untagged anti-Factor P Fab
- Kd [2]: 543 pM
- koff [2]: 0.00161 s⁻¹
- kon [2]: 2.96e+06 M⁻¹ s⁻¹

B3: NVS73 (Fab, V domains shown)
VH: EVQLVESGGGSVQPGGSLRLSCTASGFTISRSYWICWVRQAPGKGLEWVGCIYGDNDITPLYANWAKGRFTISRDTSKNTVYLQMNSLRAEDTATYYCARLGYADYAYDLWGQGTTVTVSS
VL: EIVMTQSPSTLSASVGDRVIITCQSSQSVYGNIWMAWYQQKPGRAPKLLIYQASKLASGVPSRFSGSGSGAEFTLTISSLQPDDFATYYCQGNFNTGDRYAFGQGTKLTVLK
notes: Untagged anti-TNFα Fab
- Kd [3]: 26 pM
- koff [3]: 8.01e-05 s⁻¹
- kon [3]: 3.08e+06 M⁻¹ s⁻¹

B4: NVS84 (designed binder)
chain: SDLGKKLLEAARAGQDDEVRILMANGADVNTADSTGWTPLHLAVPWGHLEIVEVLLKYGADVNAKDFQGWTPLHLAAAIGHQEIVEVLLKNGADVNAQDKFGKTAFDISIDNGNEDLAEILQKAAGSLPETGGGSGHHHHHH
notes: Untagged anti-VEGF DARPin
- Kd [1]: 419 pM
- koff [1]: 0.00168 s⁻¹
- kon [1]: 4.01e+06 M⁻¹ s⁻¹

B5: NVS4 (Fab)
heavy: EVQLVESGGGLVQPGGSLRLSCTASGFSLTDYYYMTWVRQAPGKGLEWVGFIDPDDDPYYATWAKGRFTISRDNSKNTLYLQMNSLRAEDTAVYYCAGGDHNSGWGLDIWGQGTLVTVSSASTKGPSVFPLAPSSKSTSGGTAALGCLVKDYFPEPVTVSWNSGALTSGVHTFPAVLQSSGLYSLSSVVTVPSSSLGTQTYICNVNHKPSNTKVDKRVEPKSC
light: EIVMTQSPSTLSASVGDRVIITCQASEIIHSWLAWYQQKPGKAPKLLIYLASTLASGVPSRFSGSGSGAEFTLTISSLQPDDFATYYCQNVYLASTNGANFGQGTKLTVLKRTVAAPSVFIFPPSDEQLKSGTASVVCLLNNFYPREAKVQWKVDNALQSGNSQESVTEQDSKDSTYSLSSTLTLSKADYEKHKVYACEVTHQGLSSPVTKSFNRGEC
notes: Fab version of the 1008 scFv; also called untagged anti-VEGF Fab
- Kd [4]: 5.1 pM
- koff [4]: 1.38e-05 s⁻¹
- kon [4]: 2.71e+06 M⁻¹ s⁻¹

B6: NVS1j (Fab)
heavy: EVQLVESGGGLVQPGGSLRLSCTASGFSLTDYYYMTWVRQAPGKGLEWVGFIDPDDDPYYATWAKGRFTISRDNSKNTLYLQMNSLRAEDTAVYYCAGGDHNSGWGLDIWGQGTLVTVSSASTKGPSVFPLAPSSKSTSGGTAALGCLVKDYFPEPVTVSWNSGALTSGVHTFPAVLQSSGLYSLSSVVTVPSSSLGTQTYICNVNHKPSNTKVDKRVEPKSC
light: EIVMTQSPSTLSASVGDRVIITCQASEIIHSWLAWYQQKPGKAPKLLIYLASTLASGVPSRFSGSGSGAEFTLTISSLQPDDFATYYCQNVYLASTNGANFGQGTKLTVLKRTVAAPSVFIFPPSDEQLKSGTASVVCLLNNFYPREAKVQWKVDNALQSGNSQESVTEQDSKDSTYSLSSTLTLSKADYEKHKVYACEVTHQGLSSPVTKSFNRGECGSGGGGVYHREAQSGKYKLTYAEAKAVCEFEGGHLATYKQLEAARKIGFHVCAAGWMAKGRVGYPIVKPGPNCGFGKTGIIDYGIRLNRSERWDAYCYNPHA
notes: NVS4 with HA tag at the light chain C-terminus
- Kd [5]: 5.64 pM
- koff [5]: 0.000172 s⁻¹
- kon [5]: 3.05e+07 M⁻¹ s⁻¹

B7: NVS1g (Fab)
heavy: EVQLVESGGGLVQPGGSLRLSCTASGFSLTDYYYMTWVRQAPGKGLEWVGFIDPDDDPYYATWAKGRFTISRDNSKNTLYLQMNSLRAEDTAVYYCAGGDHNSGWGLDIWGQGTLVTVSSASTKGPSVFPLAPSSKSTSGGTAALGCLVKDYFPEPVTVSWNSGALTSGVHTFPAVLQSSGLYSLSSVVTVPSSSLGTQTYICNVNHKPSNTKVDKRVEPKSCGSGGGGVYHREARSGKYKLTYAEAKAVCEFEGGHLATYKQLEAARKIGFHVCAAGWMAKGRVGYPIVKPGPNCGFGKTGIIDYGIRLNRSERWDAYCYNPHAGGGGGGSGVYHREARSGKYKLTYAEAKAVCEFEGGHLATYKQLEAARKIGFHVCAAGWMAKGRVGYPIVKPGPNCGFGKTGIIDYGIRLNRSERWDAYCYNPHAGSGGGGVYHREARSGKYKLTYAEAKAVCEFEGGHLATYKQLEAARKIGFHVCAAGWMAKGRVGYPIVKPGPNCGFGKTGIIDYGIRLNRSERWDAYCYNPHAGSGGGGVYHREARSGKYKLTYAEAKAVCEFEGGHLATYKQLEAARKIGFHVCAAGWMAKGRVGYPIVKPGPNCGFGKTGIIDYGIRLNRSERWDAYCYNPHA
light: EIVMTQSPSTLSASVGDRVIITCQASEIIHSWLAWYQQKPGKAPKLLIYLASTLASGVPSRFSGSGSGAEFTLTISSLQPDDFATYYCQNVYLASTNGANFGQGTKLTVLKRTVAAPSVFIFPPSDEQLKSGTASVVCLLNNFYPREAKVQWKVDNALQSGNSQESVTEQDSKDSTYSLSSTLTLSKADYEKHKVYACEVTHQGLSSPVTKSFNRGEC
notes: NVS4 with four tandem HA tags at the heavy chain C-terminus
- Kd [5]: 5.46 pM
- kon [5]: 614000 M⁻¹ s⁻¹

B8: NVS36 (Fab)
heavy: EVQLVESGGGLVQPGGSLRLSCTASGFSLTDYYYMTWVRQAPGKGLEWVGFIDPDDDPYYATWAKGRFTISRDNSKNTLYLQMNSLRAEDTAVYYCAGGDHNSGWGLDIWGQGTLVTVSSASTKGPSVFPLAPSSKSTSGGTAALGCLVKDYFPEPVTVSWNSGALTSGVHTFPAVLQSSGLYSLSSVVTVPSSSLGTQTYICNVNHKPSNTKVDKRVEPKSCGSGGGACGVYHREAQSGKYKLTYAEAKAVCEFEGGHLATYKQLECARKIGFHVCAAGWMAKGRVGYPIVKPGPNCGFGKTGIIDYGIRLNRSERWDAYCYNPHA
light: EIVMTQSPSTLSASVGDRVIITCQASEIIHSWLAWYQQKPGKAPKLLIYLASTLASGVPSRFSGSGSGAEFTLTISSLQPDDFATYYCQNVYLASTNGANFGQGTKLTVLKRTVAAPSVFIFPPSDEQLKSGTASVVCLLNNFYPREAKVQWKVDNALQSGNSQESVTEQDSKDSTYSLSSTLTLSKADYEKHKVYACEVTHQGLSSPVTKSFNRGEC
notes: NVS4 Fab with HA11 tag; also called NVS4 linked to tag NVS-A
- Kd [6]: 4.13 pM
- koff [6]: 0.000257 s⁻¹
- kon [6]: 6.23e+07 M⁻¹ s⁻¹
- Kd [4]: 0.656 pM
- koff [4]: 2.5e-05 s⁻¹
- kon [4]: 3.81e+07 M⁻¹ s⁻¹

B9: NVS82 (antibody, human IgG1, kappa, L234A L235A)
heavy: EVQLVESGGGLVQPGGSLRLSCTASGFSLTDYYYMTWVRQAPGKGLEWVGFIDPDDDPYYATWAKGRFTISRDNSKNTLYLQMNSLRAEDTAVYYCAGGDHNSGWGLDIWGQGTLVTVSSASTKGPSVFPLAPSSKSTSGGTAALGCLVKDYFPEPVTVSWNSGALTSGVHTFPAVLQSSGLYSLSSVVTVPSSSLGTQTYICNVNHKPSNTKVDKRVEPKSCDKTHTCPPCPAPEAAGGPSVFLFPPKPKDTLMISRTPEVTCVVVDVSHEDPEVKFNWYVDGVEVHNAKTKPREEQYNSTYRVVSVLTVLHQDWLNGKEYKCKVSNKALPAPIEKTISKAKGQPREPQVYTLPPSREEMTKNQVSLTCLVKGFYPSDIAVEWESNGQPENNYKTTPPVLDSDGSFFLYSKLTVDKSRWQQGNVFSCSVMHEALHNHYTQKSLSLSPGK
light: EIVMTQSPSTLSASVGDRVIITCQASEIIHSWLAWYQQKPGKAPKLLIYLASTLASGVPSRFSGSGSGAEFTLTISSLQPDDFATYYCQNVYLASTNGANFGQGTKLTVLKRTVAAPSVFIFPPSDEQLKSGTASVVCLLNNFYPREAKVQWKVDNALQSGNSQESVTEQDSKDSTYSLSSTLTLSKADYEKHKVYACEVTHQGLSSPVTKSFNRGEC
notes: also called IgG of NVS4
- Kd [7]: 7.64 pM
- koff [7]: 2.34e-05 s⁻¹
- kon [7]: 3.06e+06 M⁻¹ s⁻¹

B10: NVS1h (Fab)
heavy: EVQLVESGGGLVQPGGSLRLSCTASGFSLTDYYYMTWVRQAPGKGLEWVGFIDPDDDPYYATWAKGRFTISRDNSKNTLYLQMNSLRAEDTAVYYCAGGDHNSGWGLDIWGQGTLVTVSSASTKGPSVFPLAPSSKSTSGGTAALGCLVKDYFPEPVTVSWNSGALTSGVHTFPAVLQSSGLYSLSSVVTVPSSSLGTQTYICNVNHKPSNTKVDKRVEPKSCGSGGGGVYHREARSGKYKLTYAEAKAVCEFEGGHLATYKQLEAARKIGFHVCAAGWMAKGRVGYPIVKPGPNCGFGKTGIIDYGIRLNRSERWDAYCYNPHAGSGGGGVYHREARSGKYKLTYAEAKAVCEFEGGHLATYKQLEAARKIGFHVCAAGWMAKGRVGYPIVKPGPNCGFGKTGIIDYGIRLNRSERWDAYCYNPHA
light: EIVMTQSPSTLSASVGDRVIITCQASEIIHSWLAWYQQKPGKAPKLLIYLASTLASGVPSRFSGSGSGAEFTLTISSLQPDDFATYYCQNVYLASTNGANFGQGTKLTVLKRTVAAPSVFIFPPSDEQLKSGTASVVCLLNNFYPREAKVQWKVDNALQSGNSQESVTEQDSKDSTYSLSSTLTLSKADYEKHKVYACEVTHQGLSSPVTKSFNRGEC
notes: NVS4 with tandem HA tags at the heavy chain C-terminus
- Kd [5]: 0.558 pM
- koff [5]: 8.76e-06 s⁻¹
- kon [5]: 1.57e+07 M⁻¹ s⁻¹

B11: NVS2 (Fab)
heavy: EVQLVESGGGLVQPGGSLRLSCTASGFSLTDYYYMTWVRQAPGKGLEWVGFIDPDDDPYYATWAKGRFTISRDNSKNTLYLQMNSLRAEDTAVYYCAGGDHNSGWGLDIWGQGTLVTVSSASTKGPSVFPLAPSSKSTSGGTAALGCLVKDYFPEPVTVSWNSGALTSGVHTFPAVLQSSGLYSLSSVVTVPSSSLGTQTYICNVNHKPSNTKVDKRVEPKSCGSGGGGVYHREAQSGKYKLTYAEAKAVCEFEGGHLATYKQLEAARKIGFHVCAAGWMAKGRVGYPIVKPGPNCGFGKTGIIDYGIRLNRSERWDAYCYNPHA
light: EIVMTQSPSTLSASVGDRVIITCQASEIIHSWLAWYQQKPGKAPKLLIYLASTLASGVPSRFSGSGSGAEFTLTISSLQPDDFATYYCQNVYLASTNGANFGQGTKLTVLKRTVAAPSVFIFPPSDEQLKSGTASVVCLLNNFYPREAKVQWKVDNALQSGNSQESVTEQDSKDSTYSLSSTLTLSKADYEKHKVYACEVTHQGLSSPVTKSFNRGEC
notes: NVS4 Fab with HA10.1 tag at heavy chain C-terminus
- Kd [4]: 0.195 pM
- koff [4]: 1.05e-05 s⁻¹
- kon [4]: 5.36e+07 M⁻¹ s⁻¹

B12: NVS3 (Fab)
heavy: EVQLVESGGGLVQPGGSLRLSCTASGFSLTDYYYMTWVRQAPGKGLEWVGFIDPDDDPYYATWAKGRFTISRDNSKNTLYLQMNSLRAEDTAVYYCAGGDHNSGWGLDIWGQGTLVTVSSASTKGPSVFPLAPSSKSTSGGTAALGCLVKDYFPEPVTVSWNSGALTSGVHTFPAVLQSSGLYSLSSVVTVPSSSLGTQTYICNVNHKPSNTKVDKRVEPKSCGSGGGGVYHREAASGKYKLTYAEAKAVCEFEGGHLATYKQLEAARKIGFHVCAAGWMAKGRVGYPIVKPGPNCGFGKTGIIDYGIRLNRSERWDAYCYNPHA
light: EIVMTQSPSTLSASVGDRVIITCQASEIIHSWLAWYQQKPGKAPKLLIYLASTLASGVPSRFSGSGSGAEFTLTISSLQPDDFATYYCQNVYLASTNGANFGQGTKLTVLKRTVAAPSVFIFPPSDEQLKSGTASVVCLLNNFYPREAKVQWKVDNALQSGNSQESVTEQDSKDSTYSLSSTLTLSKADYEKHKVYACEVTHQGLSSPVTKSFNRGEC
notes: NVS4 Fab with HA10.2 tag at heavy chain C-terminus
- Kd [4]: 0.161 pM
- koff [4]: 1.19e-05 s⁻¹
- kon [4]: 7.39e+07 M⁻¹ s⁻¹

B13: NVS1 (Fab)
heavy: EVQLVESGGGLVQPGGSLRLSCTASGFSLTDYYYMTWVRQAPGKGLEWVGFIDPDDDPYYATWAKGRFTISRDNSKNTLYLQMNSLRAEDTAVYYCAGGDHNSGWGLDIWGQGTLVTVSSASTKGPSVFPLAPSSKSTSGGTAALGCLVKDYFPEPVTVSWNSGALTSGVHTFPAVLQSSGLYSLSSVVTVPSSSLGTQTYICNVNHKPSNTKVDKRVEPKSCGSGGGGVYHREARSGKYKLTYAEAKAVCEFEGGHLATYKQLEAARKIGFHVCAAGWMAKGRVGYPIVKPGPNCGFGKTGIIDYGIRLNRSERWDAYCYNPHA
light: EIVMTQSPSTLSASVGDRVIITCQASEIIHSWLAWYQQKPGKAPKLLIYLASTLASGVPSRFSGSGSGAEFTLTISSLQPDDFATYYCQNVYLASTNGANFGQGTKLTVLKRTVAAPSVFIFPPSDEQLKSGTASVVCLLNNFYPREAKVQWKVDNALQSGNSQESVTEQDSKDSTYSLSSTLTLSKADYEKHKVYACEVTHQGLSSPVTKSFNRGEC
notes: NVS4 Fab with HA10 tag via GSGGG at heavy chain C-terminus
- Kd [4]: 0.176 pM
- koff [4]: 1.01e-05 s⁻¹
- kon [4]: 5.75e+07 M⁻¹ s⁻¹

B14: NVS37 (Fab)
heavy: EVQLVESGGGLVQPGGSLRLSCTASGFSLTDYYYMTWVRQAPGKGLEWVGFIDPDDDPYYATWAKGRFTISRDNSKNTLYLQMNSLRAEDTAVYYCAGGDHNSGWGLDIWGQGTLVTVSSASTKGPSVFPLAPSSKSTSGGTAALGCLVKDYFPEPVTVSWNSGALTSGVHTFPAVLQSSGLYSLSSVVTVPSSSLGTQTYICNVNHKPSNTKVDKRVEPKSCGSGGGGVYHREAQSGKYKLTYAEAKAVCEFEGGHLCTYKQLEAARKIGFHVCAAGWMAKGRVGYPIVKPGPNCGFGKTGIIDYGIRLNRSERWDAYCCNPHA
light: EIVMTQSPSTLSASVGDRVIITCQASEIIHSWLAWYQQKPGKAPKLLIYLASTLASGVPSRFSGSGSGAEFTLTISSLQPDDFATYYCQNVYLASTNGANFGQGTKLTVLKRTVAAPSVFIFPPSDEQLKSGTASVVCLLNNFYPREAKVQWKVDNALQSGNSQESVTEQDSKDSTYSLSSTLTLSKADYEKHKVYACEVTHQGLSSPVTKSFNRGEC
notes: NVS4 Fab with HA11.1 tag
- Kd [4]: 3.07 pM
- koff [4]: 7.21e-05 s⁻¹
- kon [4]: 2.35e+07 M⁻¹ s⁻¹

B15: NVS1e (Fab)
heavy: EVQLVESGGGLVQPGGSLRLSCTASGFSLTDYYYMTWVRQAPGKGLEWVGFIDPDDDPYYATWAKGRFTISRDNSKNTLYLQMNSLRAEDTAVYYCAGGDHNSGWGLDIWGQGTLVTVSSASTKGPSVFPLAPSSKSTSGGTAALGCLVKDYFPEPVTVSWNSGALTSGVHTFPAVLQSSGLYSLSSVVTVPSSSLGTQTYICNVNHKPSNTKVDKRVEPKSCGS
light: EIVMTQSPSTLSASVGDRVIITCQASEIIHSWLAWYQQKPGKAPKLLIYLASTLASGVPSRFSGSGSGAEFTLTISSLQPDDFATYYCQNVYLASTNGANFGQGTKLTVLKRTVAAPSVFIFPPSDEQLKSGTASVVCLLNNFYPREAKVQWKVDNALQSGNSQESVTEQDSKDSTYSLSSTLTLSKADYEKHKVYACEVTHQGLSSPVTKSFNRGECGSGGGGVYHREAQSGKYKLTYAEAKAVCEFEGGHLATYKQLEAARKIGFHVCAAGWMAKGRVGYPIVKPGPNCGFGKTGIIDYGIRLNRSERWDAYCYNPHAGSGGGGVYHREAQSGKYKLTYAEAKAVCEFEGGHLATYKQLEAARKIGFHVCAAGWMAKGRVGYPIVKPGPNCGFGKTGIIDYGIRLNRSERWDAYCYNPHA
notes: NVS4 with two tandem HA tags at the light chain C-terminus
- Kd [8]: 0.9 pM
- koff [8]: 1.26e-05 s⁻¹
- kon [8]: 1.4e+07 M⁻¹ s⁻¹

B16: NVS75T (Fab, V domains shown)
VH: QVQLVESGGGVVQPGRSLRLSCAASGFTFSVYGMNWVRQAPGKGLEWVAIIWYDGDNQYYADSVKGRFTISRDNSKNTLYLQMNGLRAEDTAVYYCARDLRTGPFDYWGQGTLVTVSS
VL: EIVLTQSPDFQSVTPKEKVTITCRASQSIGSSLHWYQQKPDQSPKLLIKYASQSFSGVPSRFSGSGSGTDFTLTINSLEAEDAAAYYCHQSSSLPFTFGPGTKVDIKR
notes: Anti-IL-1β Fab with HA tag; also called NCS75T
- Kd [9]: 14 pM
- koff [9]: 6.9e-05 s⁻¹
- kon [9]: 4.95e+06 M⁻¹ s⁻¹
